Source: publication PMC3859839
Where two headings read alike, the source gives them in different places.

How the values were obtained:
Test in all cases: fluorescence anisotropy
PsaR wild-type [1] = target: T1, PsaR wild-type (Streptococcus pneumoniae D39, UniProt A0A0H2ZQ59 1-216)
PsaR wild-type [2] = target: T1, PsaR wild-type; remark: listed apart in the source
PsaR E99A = PsaR E99A (Streptococcus pneumoniae D39, UniProt A0A0H2ZQ59 1-216, E99A)
PsaR D7A = PsaR D7A (Streptococcus pneumoniae D39, UniProt A0A0H2ZQ59 1-216, D7A)
PsaR wild-type [3] = target: T1, PsaR wild-type; remark: listed apart in the source
PsaR H76F = PsaR H76F (Streptococcus pneumoniae D39, UniProt A0A0H2ZQ59 1-216, H76F)
PsaR H125A = PsaR H125A (Streptococcus pneumoniae D39, UniProt A0A0H2ZQ59 1-216, H125A)
PsaR H76A = PsaR H76A (Streptococcus pneumoniae D39, UniProt A0A0H2ZQ59 1-216, H76A)
PsaR D160A = PsaR D160A (Streptococcus pneumoniae D39, UniProt A0A0H2ZQ59 1-216, D160A)

B1: PsaO (psaBCA operator) (dsDNA)
DNA 1: TTCAAAAATTAACTTGACTTAATTTTTTTT
DNA 2: AAAAAAAATTAAGTCAAGTTAATTTTTGAA
B1 was tested, and the Ka (PsaR wild-type [1]) was 10.1 ± 0.1 log10 M-1, the Ka (PsaR wild-type [2]) was 8.02 ± 0.03 log10 M-1 and the Ka (PsaR E99A) was 9.27 ± 0.05 log10 M-1. For the same binder, the Ka (PsaR D7A) was 7.22 ± 0.03 log10 M-1, the Ka (PsaR wild-type [3]) was 10.6 ± 0.1 log10 M-1 and the Ka (PsaR H76F) was 8.54 ± 0.06 log10 M-1. For the same binder, the Ka (PsaR H125A) was 10.4 ± 0.1 log10 M-1, the Ka (PsaR H76A) was 9.6 ± 0.1 log10 M-1 and the Ka (PsaR D160A) was 9.8 ± 0.1 log10 M-1.
